The values below come from publication PMC3724861.

In the data set the target is T1, Caup homeodomain (Drosophila melanogaster) (UniProt P54269).
T1 sequence: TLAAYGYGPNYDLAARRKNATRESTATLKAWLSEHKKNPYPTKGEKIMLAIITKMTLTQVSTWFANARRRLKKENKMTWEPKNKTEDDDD
Particulars: PBM.
“AACATGTAT (double strand) [9-mer AACATGTAT]” had a binding signal (minimum E-score of the two 8-mers) of 0.469.
For “AACATGTAG (double strand) [9-mer AACATGTAG]” the value was 0.476; for “CTACATGTA (double strand) [9-mer CTACATGTA]”, 0.476; for “ATGTACATG (double strand) [9-mer ATGTACATG]”, 0.469.
As to “GACATGTAA (double strand) [9-mer GACATGTAA]”, the binding signal (minimum E-score of the two 8-mers) was determined as 0.468.
In turn, “TACATGTCA (double strand) [9-mer TACATGTCA]” yielded a binding signal (minimum E-score of the two 8-mers) of 0.461.
For “ATACATGTA (double strand) [9-mer ATACATGTA]” the value was 0.469.
The result for “TACATGTAA (double strand) [9-mer TACATGTAA]” reads 0.468; that for “ACATGTACA (double strand) [9-mer ACATGTACA]”, 0.469.
For “AACATGTAC (double strand) [9-mer AACATGTAC]” the value was 0.48; for “ATACATGTC (double strand) [9-mer ATACATGTC]”, 0.469; for “CTACATGTC (double strand) [9-mer CTACATGTC]”, 0.476.
Turning to “GTACATGTA (double strand) [9-mer GTACATGTA]”, the binding signal (minimum E-score of the two 8-mers) was determined as 0.48.
Turning to “GACATGTAC (double strand) [9-mer GACATGTAC]”, the binding signal (minimum E-score of the two 8-mers) is 0.477.
In turn, “AACATGTAA (double strand) [9-mer AACATGTAA]” came in with a binding signal (minimum E-score of the two 8-mers) of 0.468.
